Reference: PMC11437124 (Nature Communications, 2024)

What was measured:
[1] = target: T1, 18-mer TREM2 peptide (148-165) (Homo sapiens, UniProt Q9NZC2); assay: crystal structure
T1 chain: ESFEDAHVEHSISRSLLE

[2] = target: T2, TREM2 peptide 149-168 (Homo sapiens, UniProt Q9NZC2, biotinylated at the amino-terminus); assay: ELISA
T2 chain: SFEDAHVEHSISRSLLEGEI

[3] = target: T3, peptide with the entire TREM2 stalk region (Homo sapiens, UniProt Q9NZC2, biotinylated at the amino-terminus); assay: ELISA
T3 chain: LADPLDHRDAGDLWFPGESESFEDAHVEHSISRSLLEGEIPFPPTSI

[4] = target: these 4 clones (3.10C2, 3.27H7, 3.18E5 and 3.50G1), SPR screening; assay: SPR

B1: huPara.09 Fab fragment (Fab, V domains shown)
VH: EVQLVESGGGLVQPGGSLKLSCATSGFPFSNVWLHWVRQASGKGPEWVAHIKAKSDNYATYYAESVKGRFTISRDDSKNTVYLQMNSLKTEDTAVYYCTDILEYWGQGTLVTVSS
VL: DVVMTQSPLSLPVTPGEPASISCRSSRSLLTSKGITSLYWYLQKPGQSPQLLIYRMSNLASGIPDRFSGSGSGTDFTLKISRVEAEDVGVYYCAQFLVYPYTFGPGTKVEIK
B1: binds [1].

B2: antibody Para.09 (IgG, with the light chain of 3.10C2) (antibody, V domains shown)
VH: EVQLVETGGSLVQPGKSLRLTCATSGFPFSNVWLHWVRQSPEKHPEWVAHIKAKSDNYATYYAESVKGRFTISRDDSKSSVFLQMNSLKEEDTAIYYCTDILEYWGQGTLVTVSS
VL: DTVLTQAPLSLSVTPGESASISCRSSKSLLGVRDITSLYWYLQKPGKSPQLLIYRMSNLASGVPDRFSGSGSETDFTLKISEVETEDVGVYYCAQFLRYPYTFGPGTKLELK
B2: binds [2]; binds [3].

B3: human TREM2 extracellular domain (ECD) (domain or fragment)
chain: HNTTVFQGVAGQSLQVSCPYDSMKHWGRRKAWCRQLGEKGPCQRVVSTHNLWLLSFLRRWNGSTAITDDTLGGTLTITLRNLQPHDAGLYQCQSLHGSEADTLRKVLVEVLADPLDHRDAGDLWFPGESESFEDAHVEHSISRSLLEGEIPFPPTS
B3 was tested, and the Kd [4] was 0.14 to 0.67 nM.
